{"source": "paper PMC2315677", "key": {"[1]": {"molecular_target": "calreticulin (hamster (endogenous in CHO)) (UniProt Q8K3H7)", "sequence (Q8K3H7 18-417)": "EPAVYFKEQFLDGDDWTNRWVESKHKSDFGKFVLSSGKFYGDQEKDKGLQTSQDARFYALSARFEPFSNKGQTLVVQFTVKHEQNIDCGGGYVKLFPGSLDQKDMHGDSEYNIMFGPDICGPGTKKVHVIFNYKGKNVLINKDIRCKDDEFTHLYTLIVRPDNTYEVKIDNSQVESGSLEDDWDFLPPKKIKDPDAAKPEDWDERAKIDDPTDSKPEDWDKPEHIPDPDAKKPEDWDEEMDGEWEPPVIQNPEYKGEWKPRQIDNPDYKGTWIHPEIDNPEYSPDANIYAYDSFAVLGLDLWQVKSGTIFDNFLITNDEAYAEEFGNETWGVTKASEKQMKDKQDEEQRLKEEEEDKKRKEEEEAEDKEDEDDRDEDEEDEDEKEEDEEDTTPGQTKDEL", "assay": "co-IP"}, "[2]": {"molecular_target": "calreticulin (hamster (endogenous in CHO)) (UniProt Q8K3H7)", "assay": "co-IP", "remark": "listed apart in the source"}}, "note": "Where two headings read alike, the source gives them in different places.", "data": [{"substance": "influenza hemagglutinin (HA) wild type, transiently expressed in MI8-5 CHO cells (from UniProt P03437 17-566) (natural protein)", "values": [{"measurement": "percent bound", "setting": "[1]", "result": 70, "unit": "%"}, {"measurement": "percent bound", "setting": "[2]", "result": 16, "unit": "%"}]}]}
